This passage reports Kd results from paper PMC11390681.

The subject of this series is F4 (K88) fimbriae on intact ETEC strain SP11 cells (Escherichia coli (ETEC-F4+, strain SP11)). As to the kind of experiment: whole-cell binding with qPCR quantification of eluted aptamer. The conditions noted are these: 138 mM NaCl, 20 mM Tris-HCl pH 7.4, 2.7 mM KCl, 1 mM CaCl2, 0.5 mM MgCl2, 0.1 mg/mL salmon sperm DNA, 30 min at 37 C, 500 rpm, washes with 0.05% Tween 20.

“CGTACGGTCGACGCTAGCACACTCTTTTGCTCGTGTTTTTGCCTGTTACATAAAATGAATCAGTGGATGTTTCCTTCTCACGTGGAGCTCGGATCC [Apt31]” returned a Kd (intact SP11 cells, about 10^8 CFU/mL, 1 mM CaCl2, 0.5 mM MgCl2) of 81.8 nM.
In turn, “CGTACGGTCGACGCTAGCGGAGACCGTACCATCTGTTCGTGGAAGCGCTTTGCTCGTCCATTAGCCTTGTGCTCGTGCCACGTGGAGCTCGGATCC [Apt37]” had a Kd of 50.8 nM.
